Earlier results as cited in PMC7035337.

Target: vimentin (Homo sapiens) (UniProt P08670)
Sequence (P08670 2-466): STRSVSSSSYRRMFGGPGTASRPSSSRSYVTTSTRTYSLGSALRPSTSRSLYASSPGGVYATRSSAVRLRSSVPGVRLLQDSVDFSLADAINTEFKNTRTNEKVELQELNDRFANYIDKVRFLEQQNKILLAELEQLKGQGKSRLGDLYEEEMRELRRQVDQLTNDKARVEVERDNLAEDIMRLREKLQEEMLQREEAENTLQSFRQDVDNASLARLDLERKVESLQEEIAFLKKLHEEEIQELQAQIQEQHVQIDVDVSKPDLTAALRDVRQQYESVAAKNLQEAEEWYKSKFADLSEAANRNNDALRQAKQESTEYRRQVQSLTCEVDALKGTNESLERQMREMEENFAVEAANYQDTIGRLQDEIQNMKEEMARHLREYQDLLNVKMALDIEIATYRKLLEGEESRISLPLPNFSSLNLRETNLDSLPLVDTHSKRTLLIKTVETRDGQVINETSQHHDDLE

envoplakin PRD, sequence (Q92817 1822-2014): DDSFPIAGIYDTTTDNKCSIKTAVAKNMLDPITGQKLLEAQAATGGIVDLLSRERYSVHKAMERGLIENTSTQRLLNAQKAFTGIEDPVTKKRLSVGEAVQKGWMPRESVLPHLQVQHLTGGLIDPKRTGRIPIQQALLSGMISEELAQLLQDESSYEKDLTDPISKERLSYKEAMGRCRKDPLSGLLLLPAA

## envoplakin PRD (from UniProt Q92817)
  Kd: 19.1 µM
